Experiments:
[1] = molecular target: T1, human glutamic acid decarboxylase 65 kilodalton isoform (human, UniProt Q05329 1-585); assay: immunoprecipitation of 35S-methionine labelled GAD65 with Fab and Protein G-Sepharose; midpoint read visually
T1 construct: also called GAD65; antigen

chicken lysozyme [2] = molecular target: T2, chicken lysozyme (chicken, UniProt P00698 19-147); assay: fluorescence quench titration (FIG. 7 legend); FIG. 7 legend, bound only
T2 construct: also called chicken lysozyme antigen
T2 sequence (P00698 19-147 limits assumed): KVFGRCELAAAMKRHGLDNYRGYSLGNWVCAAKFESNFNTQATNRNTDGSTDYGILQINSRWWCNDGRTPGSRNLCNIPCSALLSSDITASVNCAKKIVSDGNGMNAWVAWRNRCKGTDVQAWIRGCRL

chicken lysozyme [3] = molecular target: T2, chicken lysozyme; assay: fluorescence quench titration; reference is the literature Kd of D1.3 IgG (4 nM)
chicken lysozyme [4] = molecular target: T2, chicken lysozyme; assay: intrinsic tryptophan fluorescence quench titration, 200 nM Fab titrated with lysozyme in solution
CD28Ig [5] = molecular target: T3, CD28Ig (human, UniProt P10747 19-152); assay: ELISA on CD28Ig coated plates (FIG. 11 legend)
T3 construct: also called GD28Ig; human CD28; not shown: Ig part of CD28Ig; not described

CD28Ig [6] = molecular target: T3, CD28Ig; assay: ELISA, CD28Ig coated plates, detection with anti-human kappa immunoconjugate

T1 sequence (Q05329 whole entry, canonical isoform): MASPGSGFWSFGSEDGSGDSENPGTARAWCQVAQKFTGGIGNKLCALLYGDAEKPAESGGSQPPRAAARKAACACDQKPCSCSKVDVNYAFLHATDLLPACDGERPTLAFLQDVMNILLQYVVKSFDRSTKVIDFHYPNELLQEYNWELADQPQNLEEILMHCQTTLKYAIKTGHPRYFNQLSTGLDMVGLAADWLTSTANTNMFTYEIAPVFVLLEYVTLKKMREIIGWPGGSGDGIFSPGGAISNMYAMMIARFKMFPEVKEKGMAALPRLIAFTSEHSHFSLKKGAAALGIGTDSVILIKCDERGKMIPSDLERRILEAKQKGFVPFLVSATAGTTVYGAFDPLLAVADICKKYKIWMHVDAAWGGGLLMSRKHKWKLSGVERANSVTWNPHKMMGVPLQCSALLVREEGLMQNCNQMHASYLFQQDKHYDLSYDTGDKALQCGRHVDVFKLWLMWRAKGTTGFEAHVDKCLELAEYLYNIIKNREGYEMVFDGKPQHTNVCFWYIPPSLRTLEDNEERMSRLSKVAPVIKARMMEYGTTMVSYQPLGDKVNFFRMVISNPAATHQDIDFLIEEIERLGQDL

B1: Fab fragment comprised of mouse NGAD65 variable and constant domains (Fab, V domains shown)
VH: QVQLQQPGAELVKPGASVKMSCKASGYRFSSYNMHWVKQTPGQGLEWIGAIYPRSGDTSYNQKFKGKATLTADKSSSTAYMQLGSLTSEDSAVYYCVRSYDYDAPFAFWGQGTLVTVSA
VL: VLTQTPLSLPVSLGDQASISCRSSQSLEHNNGNTYLNWYLQKPGQSPQLLIYRVSNRFSGGLDRFSGSGSGTDFTLKISRVEAEDLGVYFCLQVTHVPFTFGSGTKLEIKR
notes: also called mouse Fab; mouse NGAD65 Fab
EC50 [1]: 0.00036 nM

B2: humanized D1.3 Fab (Fab, V domains shown)
VH: QVQLQESGPGLVKPSETLSLTCTVSGGSVSGYGVNWIRQPPGKGLEWIGMIWGDGNTDYNSSLKSRVTISVDTSKNQFSLKLSSVTAADTAVYYCARERDYRLDYWGQGTLVTVSS
VL: AIRMTQSPFSLSASVGDRVTITCRASGNIHNYLAWYQQKPAKAPKLFIYYTTTLADGVPSRFSGSGSGTDYTLTISSLQPEDFATYYCQHFWSTPRTFGGGTKVEIKR
notes: also called SHuD1.3; humanized D1.3 antibody
Ka (chicken lysozyme [2]): 4.3e+07 M⁻¹ | factor by which affinity is diminished relative to the subject mouse antibody D1.3 (chicken lysozyme [3]): < 6 fold | Kd (chicken lysozyme [4]): 23 nM

B3: humanized anti-human CD28 (Hu.9.3) Fab fragment (Fab, V domains shown)
VH: EVQLVQSGGGLVQPGGSLRLSCAGSGFTFSDYGVHWVRQAPGKGLEWVSAIWAGGGTNYASSVMGRFTISRDNAKNSLYLQMNSLRAEDMAVYYCARDKGYSYYYSMDYWGQGTLVTVSS
VL: DIVMTQSPDSLAVSLGERATINCRASESVEYYVTSLMAWYQQKPGQPPKLLIYAASNVESGVPDRFSGSGSGTNFSLTISSLQAEDVAVYYCQQSRKVPYTFGQGTKLEIKR
notes: also called humanized 9.3
Ka (CD28Ig [5]): > 1e+06 M⁻¹ | EC50 (CD28Ig [6]): 630 nM

B4: hybrid Fab fragment comprised of human constant domains, mouse 9.3 heavy chain variable domain, and humanized light chain variable domain (Fab, V domains shown)
VH: EVKLQQSGPGLVTPSQSLSITCTVSGFSLSDYGVHWVRQSPGQGLEWLGVIWAGGGTNYNSALMSRKSISKDNSKSQVFLKMNSLQADDTAVYYCARDKGYSYYYSMDYWGQGTSVTVSS
VL: B3 VL
EC50 (CD28Ig [6]): 30 nM

Reference: patent publication US6881557 (ARROWSMITH TECHNOLOGY LICENSING, dated 2005)
